{
  "source": "patent US20180371086A1",
  "about": "(Gilead, published 2018)",
  "key": {"[1]": {"target": "HIV-1 Env of subtype B isolate 92US712 (HIV-1)", "assay": "cell-based or functional assay"}, "[2]": {"target": "HIV-1 Env of the lab adapted HIV-1 BaL strain (HIV-1)", "assay": "cell-based or functional assay"}, "[3]": {"target": "HIV-1 Env of subtype B isolate 93HT593 (HIV-1)", "assay": "cell-based or functional assay"}, "[4]": {"target": "HIV-1 Env of subtype B isolate 92US657 (HIV-1)", "assay": "cell-based or functional assay"}, "[5]": {"target": "HIV-1 Env of subtype B isolate 92US727 (HIV-1)", "assay": "cell-based or functional assay"}, "Human FcRn [6]": {"target": "T1, Human FcRn (human, UniProt P55899 24-297; P61769 21-119)", "T1 construct": "also called neonatal Fc receptor", "T1 sequence (P55899 24-297 limits assumed, chain 1 of 2)": "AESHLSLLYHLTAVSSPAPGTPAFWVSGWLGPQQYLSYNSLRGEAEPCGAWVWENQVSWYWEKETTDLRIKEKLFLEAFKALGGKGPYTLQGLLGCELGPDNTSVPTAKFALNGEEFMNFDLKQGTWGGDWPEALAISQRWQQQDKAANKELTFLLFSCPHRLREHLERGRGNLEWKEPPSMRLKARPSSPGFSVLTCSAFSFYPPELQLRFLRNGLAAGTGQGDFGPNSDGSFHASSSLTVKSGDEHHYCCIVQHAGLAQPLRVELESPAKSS", "T1 sequence (P61769 21-119 limits assumed, chain 2 of 2)": "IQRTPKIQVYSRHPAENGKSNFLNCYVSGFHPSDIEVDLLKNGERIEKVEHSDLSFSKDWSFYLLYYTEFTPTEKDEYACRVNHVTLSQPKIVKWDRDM", "assay": "ELISA, FcRn coated on plate, pH 6.0", "protocol": "(§1) The binding of antibodies to FcRn of various antibody variants at different pHs was determined. A 96-well Maxisorp plate was coated with 100 ul of 5 μg/ml FcRn. The plate was incubated overnight at 4° C., and then blocked with 4% skim milk for 2 hr at room temperature after washing 3 times with 0.05% Tween 20 washing buffer. […] The plate was then washed 3 times and 100 μL of Fab-anti-human Fab-HRP or Goat anti-human IgG-HRP secondary antibody diluted in 4% skimmed milk was added. Plates were then incubated 50 min at room temperature, washed three times, and 100 μL fresh TMB substrate was added. Plates were developed for 3 minutes on bench with gentle shaking. Plate was quenched with 100 μL 1M HCl, shaken briefly, read at A450 on a spectramax m5 plate reader."}, "Human FcRn [7]": {"target": "T1, Human FcRn", "assay": "ELISA, FcRn coated on plate; ratio of EC50 at pH 7.0 to pH 6.0", "protocol": "as §1"}, "Human FcRn [8]": {"target": "T1, Human FcRn", "assay": "ELISA, FcRn coated on plate, pH 7.0", "protocol": "as §1"}, "Human FcRn [9]": {"target": "T1, Human FcRn", "assay": "ELISA, FcRn coated on plate; pH 7.0/6.0 ratio against that of PGT121", "protocol": "as §1"}, "[10]": {"target": "gp120 (HT593) expressed on human embryonic kidney (HEK) cells (HIV-1)", "assay": "cell-based or functional assay"}, "[11]": {"target": "HIV-1 Env gp120 of virus CH058, on infected cells (HIV-1)", "assay": "cell-based or functional assay"}, "[12]": {"target": "HIV-1 Env gp120 of virus 92US727, on infected cells (HIV-1)", "assay": "cell-based or functional assay"}, "[13]": {"target": "HIV-1 Env gp120 of virus 1489, on infected cells (HIV-1)", "assay": "cell-based or functional assay"}, "[14]": {"target": "HIV-1 Env gp120 of virus 7015, on infected cells (HIV-1)", "assay": "cell-based or functional assay"}, "[15]": {"target": "HIV-1 Env gp120 of virus 7552, on infected cells (HIV-1)", "assay": "cell-based or functional assay"}, "[16]": {"target": "T2, HIV-1 Env gp120 of virus WITO, on infected cells (HIV-1)", "assay": "cell-based or functional assay"}, "[17]": {"target": "T2, HIV-1 Env gp120 of virus WITO, on …", "assay": "cell-based or functional assay", "remark": "listed apart in the source"}},
  "data": [
    {"binder": "PGT121.56 (antibody, human IgG1, lambda) heavy: QMQLQESGPGLVKPSETLSLTCSVSGASISDSYWSWIRRSPGKGLEWIGYVHKSGDTNYSPSLKSRVNLSLDTSKNQVSLSLVAATAADSGKYYCARTLHGRRIYGIVAFNEWFTYFYMDVWGNGTQVTVSSASTKGPSVFPLAPSSKSTSGGTAALGCLVKDYFPEPVTVSWNSGALTSGVHTFPAVLQSSGLYSLSSVVTVPSSSLGTQTYICNVNHKPSNTKVDKKVEPKSCDKTHTCPPCPAPELLAGPDVFLFPPKPKDTLMISRTPEVTCVVVDVSHEDPEVKFNWYVDGVEVHNAKTKPREEQYNSTYRVVSVLTVLHQDWLNGKEYKCKVSNKALPLPEEKTISKAKGQPREPQVYTLPPSREEMTKNQVSLTCLVKGFYPSDIAVEWESNGQPENNYKTTPPVLDSDGSFFLYSKLTVDKSRWQQGNVFSCSVLHEALHSHYTQKSLSLSPGK light: not shown", "note": "[PGT121.56, listing 1 of 2 here]", "values": [
      {"measurement": "Neutralization potency, IC50", "setting": "[1]", "result": 0.019, "unit": "µg/mL"},
      {"measurement": "Neutralization potency, IC50", "setting": "[2]", "result": 0.02, "unit": "µg/mL"},
      {"measurement": "Neutralization potency, IC50", "setting": "[3]", "result": 0.164, "unit": "µg/mL"},
      {"measurement": "Neutralization potency, IC50", "setting": "[4]", "result": 0.142, "unit": "µg/mL"},
      {"measurement": "Neutralization potency, IC50", "setting": "[5]", "result": 0.011, "unit": "µg/mL"}
    ]},
    {"binder": "PGT121.56 (antibody, human IgG1, lambda) heavy: QMQLQESGPGLVKPSETLSLTCSVSGASISDSYWSWIRRSPGKGLEWIGYVHKSGDTNYSPSLKSRVNLSLDTSKNQVSLSLVAATAADSGKYYCARTLHGRRIYGIVAFNEWFTYFYMDVWGNGTQVTVSSASTKGPSVFPLAPSSKSTSGGTAALGCLVKDYFPEPVTVSWNSGALTSGVHTFPAVLQSSGLYSLSSVVTVPSSSLGTQTYICNVNHKPSNTKVDKKVEPKSCDKTHTCPPCPAPELLAGPDVFLFPPKPKDTLMISRTPEVTCVVVDVSHEDPEVKFNWYVDGVEVHNAKTKPREEQYNSTYRVVSVLTVLHQDWLNGKEYKCKVSNKALPLPEEKTISKAKGQPREPQVYTLPPSREEMTKNQVSLTCLVKGFYPSDIAVEWESNGQPENNYKTTPPVLDSDGSFFLYSKLTVDKSRWQQGNVFSCSVLHEALHSHYTQKSLSLSPGK light: not shown", "note": "[PGT121.56, listing 2 of 2 here]", "values": [
      {"measurement": "EC50", "setting": "Human FcRn [6]", "result": 0.47, "unit": "nM"},
      {"measurement": "Ratio pH 7.0/6.0", "setting": "Human FcRn [7]", "result": 217},
      {"measurement": "EC50", "setting": "Human FcRn [8]", "result": 102, "unit": "nM"},
      {"measurement": "Fold vs PGT121", "setting": "Human FcRn [9]", "result": 7, "unit": "fold"}
    ]},
    {"binder": "Variant 2 (DS -> DF) (antibody, human IgG1, lambda, V domains shown) VH: QMQLQESGPGLVKPSETLSLTCSVSGASISDSYWSWIRRSPGKGLEWIGYVHKSGDTNYNPSLKSRVHLSLDTSKNQVSLSLTGVTAADSGKYYCARTLHGRRIYGIVAFNEWFTYFYMDVWGTGTQVTVSS VL: SDISVAPGETARISCGEKSLGSRAVQWYQHRAGQAPSLIIYNNQDRPSGIPERFSGSPDFRPGTTATLTITSVEAGDEADYYCHIWDSRVPTKWVFGGGTTLTVLG", "values": [
      {"measurement": "% ADCC Activity (ADCC reporter cell based assay; sample stressed at 25° C. for 4 weeks, relative to its untreated control)", "setting": "[10]", "result": 96, "unit": "%"}
    ]},
    {"binder": "Variant 4 (DS->GS) (antibody, human IgG1, lambda, V domains shown) VH: QMQLQESGPGLVKPSETLSLTCSVSGASISDSYWSWIRRSPGKGLEWIGYVHKSGDTNYNPSLKSRVHLSLDTSKNQVSLSLTGVTAADSGKYYCARTLHGRRIYGIVAFNEWFTYFYMDVWGTGTQVTVSS VL: SDISVAPGETARISCGEKSLGSRAVQWYQHRAGQAPSLIIYNNQDRPSGIPERFSGSPGSRPGTTATLTITSVEAGDEADYYCHIWDSRVPTKWVFGGGTTLTVLG", "values": [
      {"measurement": "% ADCC Activity (ADCC reporter cell based assay; sample stressed at 25° C. for 4 weeks, relative to its untreated control)", "setting": "[10]", "result": 95, "unit": "%"}
    ]},
    {"binder": "Variant 1 (DS -> DY) (antibody, human IgG1, lambda, V domains shown) VH: QMQLQESGPGLVKPSETLSLTCSVSGASISDSYWSWIRRSPGKGLEWIGYVHKSGDTNYNPSLKSRVHLSLDTSKNQVSLSLTGVTAADSGKYYCARTLHGRRIYGIVAFNEWFTYFYMDVWGTGTQVTVSS VL: SDISVAPGETARISCGEKSLGSRAVQWYQHRAGQAPSLIIYNNQDRPSGIPERFSGSPDYRPGTTATLTITSVEAGDEADYYCHIWDSRVPTKWVFGGGTTLTVLG", "values": [
      {"measurement": "% ADCC Activity (ADCC reporter cell based assay; sample stressed at 25° C. for 4 weeks, relative to its untreated control)", "setting": "[10]", "result": 100, "unit": "%"}
    ]},
    {"binder": "Variant 3 (DS->DT) (antibody, human IgG1, lambda, V domains shown) VH: QMQLQESGPGLVKPSETLSLTCSVSGASISDSYWSWIRRSPGKGLEWIGYVHKSGDTNYNPSLKSRVHLSLDTSKNQVSLSLTGVTAADSGKYYCARTLHGRRIYGIVAFNEWFTYFYMDVWGTGTQVTVSS VL: SDISVAPGETARISCGEKSLGSRAVQWYQHRAGQAPSLIIYNNQDRPSGIPERFSGSPDTRPGTTATLTITSVEAGDEADYYCHIWDSRVPTKWVFGGGTTLTVLG", "values": [
      {"measurement": "% ADCC Activity (ADCC reporter cell based assay; sample stressed at 25° C. for 4 weeks, relative to its untreated control)", "setting": "[10]", "result": 104, "unit": "%"}
    ]},
    {"binder": "Exemplary gp120×CD3 Duobody® (bispecific antibody, human IgG1, lambda) heavy 1: QMQLQESGPGLVKPSETLSLTCSVSGASISDSYWSWIRRSPGKGLEWIGYVHKSGDTNYNPSLKSRVHLSLDTSKNQVSLSLTGVTAADSGKYYCARTLHGRRIYGIVAFNEWFTYFYMDVWGTGTQVTVSSASTKGPSVFPLAPSSKSTSGGTAALGCLVKDYFPEPVTVSWNSGALTSGVHTFPAVLQSSGLYSLSSVVTVPSSSLGTQTYICNVNHKPSNTKVDKRVEPKSCDKTHTCPPCPAPEFEGGPSVFLFPPKPKDTLMISRTPEVTCVVVAVSHEDPEVKFNWYVDGVEVHNAKTKPREEQYNSTYRVVSVLTVLHQDWLNGKEYKCKVSNKALPAPIEKTISKAKGQPREPQVYTLPPSREEMTKNQVSLTCLVKGFYPSDIAVEWESNGQPENNYKTTPPVLDSDGSFFLYSRLTVDKSRWQQGNVFSCSVMHEALHNHYTQKSLSLSPGK light 1: not shown heavy 2: not shown light 2: not shown", "values": [
      {"measurement": "Potency (IC50) of killing HIV-infected cells; PBMC-derived effector cells; donor 1003277; virus CHO58", "setting": "[11]", "result": 0.002, "unit": "µg/mL"},
      {"measurement": "Potency (IC50) of killing HIV-infected cells; PBMC-derived effector cells; donor 1004344; virus CHO58", "setting": "[11]", "result": 0.001, "unit": "µg/mL"},
      {"measurement": "Potency (IC50) of killing HIV-infected cells; tonsil-derived effector cells; donor 1003277; virus CHO58", "setting": "[11]", "result": 0.024, "unit": "µg/mL"},
      {"measurement": "Potency (IC50) of killing HIV-infected cells; tonsil-derived effector cells; donor 1004344; virus CHO58", "setting": "[11]", "result": 0.031, "unit": "µg/mL"},
      {"measurement": "Potency (IC50) of killing HIV-infected cells; PBMC-derived effector cells; donor 1004344; virus 92US727", "setting": "[12]", "result": 0.012, "unit": "µg/mL"},
      {"measurement": "Potency (IC50) of killing HIV-infected cells; tonsil-derived effector cells; donor 1004344; virus 92US727", "setting": "[12]", "result": 0.051, "unit": "µg/mL"},
      {"measurement": "killing EC50; HIV-infected CEM-NKr-CCR5-LucR CD4 T cells; PBMC donor 4176; virus 1489", "setting": "[13]", "result": 0.028, "unit": "µg/mL"},
      {"measurement": "killing EC50; HIV-infected CEM-NKr-CCR5-LucR CD4 T cells; PBMC donor 4288; virus 1489", "setting": "[13]", "result": 0.005, "unit": "µg/mL"},
      {"measurement": "killing EC50; HIV-infected CEM-NKr-CCR5-LucR CD4 T cells; PBMC donor 4176; virus 7015", "setting": "[14]", "result": 1.04, "unit": "µg/mL"},
      {"measurement": "killing EC50; HIV-infected CEM-NKr-CCR5-LucR CD4 T cells; PBMC donor 4288; virus 7015", "setting": "[14]", "result": 0.446, "unit": "µg/mL"},
      {"measurement": "killing EC50; HIV-infected CEM-NKr-CCR5-LucR CD4 T cells; PBMC donor 4176; virus 7552", "setting": "[15]", "result": 0.038, "unit": "µg/mL"},
      {"measurement": "killing EC50; HIV-infected CEM-NKr-CCR5-LucR CD4 T cells; PBMC donor 4288; virus 7552", "setting": "[15]", "result": 0.003, "unit": "µg/mL"},
      {"measurement": "killing EC50; HIV-infected CEM-NKr-CCR5-LucR CD4 T cells; PBMC donor 4176; virus WITO", "setting": "[16]", "result": 0.248, "unit": "µg/mL"},
      {"measurement": "killing EC50; HIV-infected CEM-NKr-CCR5-LucR CD4 T cells; PBMC donor 4288; virus WITO", "setting": "[16]", "result": 0.046, "unit": "µg/mL"},
      {"measurement": "killing EC50; HIV-infected CD4 T cells (WITO); effector cells Eff Memory CD4", "setting": "[17]", "result": 0.02, "unit": "µg/mL"},
      {"measurement": "killing EC50; HIV-infected CD4 T cells (WITO); effector cells Memory CD4", "setting": "[17]", "result": 0.02, "unit": "µg/mL"},
      {"measurement": "killing EC50; HIV-infected CD4 T cells (WITO); effector cells Memory CD8", "setting": "[17]", "result": 0.02, "unit": "µg/mL"},
      {"measurement": "killing EC50; HIV-infected CD4 T cells (WITO); effector cells Naïve CD4", "setting": "[17]", "result": 0.03, "unit": "µg/mL"},
      {"measurement": "killing EC50; HIV-infected CD4 T cells (WITO); effector cells γ Δ CD4", "setting": "[17]", "result": 0.09, "unit": "µg/mL"}
    ]}
  ]
}
